Results taken from patent US20130315910A1 (Xencor, published 2013).

T1: human FcγRIIb receptor protein (R&D Systems) (human, UniProt P31994 46-217)
T1 construct: Bought protein injected over captured antibody in Biacore; also called CD32b
T1 sequence (looked up): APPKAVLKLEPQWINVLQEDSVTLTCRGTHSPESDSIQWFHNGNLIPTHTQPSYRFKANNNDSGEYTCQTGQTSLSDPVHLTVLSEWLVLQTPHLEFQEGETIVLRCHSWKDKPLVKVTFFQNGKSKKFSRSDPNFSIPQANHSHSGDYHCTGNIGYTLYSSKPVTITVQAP

T2: human FcγRIIa (131R), His- and GST-tagged (human, UniProt P12318 34-217)
T2 construct: Expressed in HEK293T cells, purified by nickel chromatography; also called R131 FcγRIIa; not shown: 6xHis and GST tags of the pTT5 vector
T2 sequence (looked up): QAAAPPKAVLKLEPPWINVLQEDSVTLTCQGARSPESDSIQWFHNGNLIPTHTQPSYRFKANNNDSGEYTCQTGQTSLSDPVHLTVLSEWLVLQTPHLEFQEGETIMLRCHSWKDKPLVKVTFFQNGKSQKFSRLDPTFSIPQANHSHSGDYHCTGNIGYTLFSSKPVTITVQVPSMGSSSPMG

T3: cynoFcγRIIb (Macaca fascicularis, UniProt A0A140HDP4)
T3 construct: extracellular region, C-terminal His- and GST-tag; also called cynomolgus monkey FcγRIIb
T3 sequence (receptor extracellular region): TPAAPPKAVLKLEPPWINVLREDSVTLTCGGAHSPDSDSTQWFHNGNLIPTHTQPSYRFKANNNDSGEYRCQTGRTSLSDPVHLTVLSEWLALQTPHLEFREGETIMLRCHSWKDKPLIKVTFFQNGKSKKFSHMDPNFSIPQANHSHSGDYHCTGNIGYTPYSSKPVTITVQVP


Columns and labels:
Test in all cases: SPR
[1] = target: T1, human FcγRIIb receptor protein (R&D …)
Experimental: (§1) Variants were screened for receptor affinity using Biacore™ technology, also referred to as Biacore herein, a surface plasmon resonance (SPR) based technology for studying biomolecular interactions in real time. SPR measurements were performed using a Biacore 3000 instrument (Biacore, Piscataway, N.J.). A protein A/G (Pierce Biotechnology) CM5 biosensor chip (Biacore) was generated using a standard primary amine coupling protocol. All measurements were performed using HBS-EP buffer (10 mM HEPES pH 7.4, 0.15 M NaCl, 3 mM EDTA, 0.005% vol/vol surfactant P20, Biacore). Antibodies at 20 nM or 50 nM in HBS-EP buffer were immobilized on the protein A/G surface and FcγRs were injected. After each cycle, the surface was regenerated by injecting glycine buffer (10 mM, pH 1.5). Data were processed by zeroing time and response before the injection of FcγR and by subtracting appropriate nonspecific signals (response of reference channel and injection of running buffer). Kinetic analyses were performed by global fitting of binding data with a 1:1 Langmuir binding model using BIAevaluation software (Biacore).

[2] = target: T2, human FcγRIIa (131R), His- and …
Experimental: as §1

cynoFcγRIIb = target: T3, cynoFcγRIIb
Experimental: as §1
Variant antibodies were tested for their affinity to mouse or cynologous monkey FcγRs using Biacore SPR as described above. Specifically, antibodies were first immobilized on a protein A/G chip to high density, and then followed by injections of the extracellular domain of the mouse or cynologous monkey FcγR of interest. Both association and dissociation phases were tracked in real time using the Biacore technology.

Binder | Fold vs WT IgG1 [1] [fold] | Kd [1] [µM] | Fold vs WT IgG1 [2] [fold] | Kd [2] [µM] | Fold vs WT IgG1 (Kd) (cynoFcγRIIb) [fold] | binding result [1] | binding result [2]
G237P (antibody, human IgG1, kappa, HuAM4G7 anti-CD19 IgG1 (m1) with this Fc substitution, EU index; copies: 2 + 2) heavy: not shown light: DIVMTQSPATLSLSPGERATLSCRSSKSLQNVNGNTYLYWFQQKPGQSPQLLIYRMSNLNSGVPDRFSGSGSGTEFTLTISSLEPEDFAVYYCMQHLEYPITFGAGTKLEIKRTVAAPSVFIFPPSDEQLKSGTASVVCLLNNFYPREAKVQWKVDNALQSGNSQESVTEQDSKDSTYSLSSTLTLSKADYEKHKVYACEVTHQGLSSPVTKSFNRGEC | 0.0147 | 100 | 0.00859 | 100 | – | – | –
L234I (antibody, human IgG1, kappa, HuAM4G7 anti-CD19 IgG1 (m1) with this Fc substitution, EU index; copies: 2 + 2) heavy: not shown light: DIVMTQSPATLSLSPGERATLSCRSSKSLQNVNGNTYLYWFQQKPGQSPQLLIYRMSNLNSGVPDRFSGSGSGTEFTLTISSLEPEDFAVYYCMQHLEYPITFGAGTKLEIKRTVAAPSVFIFPPSDEQLKSGTASVVCLLNNFYPREAKVQWKVDNALQSGNSQESVTEQDSKDSTYSLSSTLTLSKADYEKHKVYACEVTHQGLSSPVTKSFNRGEC | 0.108 | 13.6 | 0.0554 | 15.5 | – | – | –
L235S (antibody, human IgG1, kappa, HuAM4G7 anti-CD19 IgG1 (m1) with this Fc substitution, EU index; copies: 2 + 2) heavy: not shown light: DIVMTQSPATLSLSPGERATLSCRSSKSLQNVNGNTYLYWFQQKPGQSPQLLIYRMSNLNSGVPDRFSGSGSGTEFTLTISSLEPEDFAVYYCMQHLEYPITFGAGTKLEIKRTVAAPSVFIFPPSDEQLKSGTASVVCLLNNFYPREAKVQWKVDNALQSGNSQESVTEQDSKDSTYSLSSTLTLSKADYEKHKVYACEVTHQGLSSPVTKSFNRGEC | 0.0147 | 100 | 0.00859 | 100 | – | – | –
L234Y (antibody, human IgG1, kappa, HuAM4G7 anti-CD19 IgG1 (m1) with this Fc substitution, EU index; copies: 2 + 2) heavy: not shown light: DIVMTQSPATLSLSPGERATLSCRSSKSLQNVNGNTYLYWFQQKPGQSPQLLIYRMSNLNSGVPDRFSGSGSGTEFTLTISSLEPEDFAVYYCMQHLEYPITFGAGTKLEIKRTVAAPSVFIFPPSDEQLKSGTASVVCLLNNFYPREAKVQWKVDNALQSGNSQESVTEQDSKDSTYSLSSTLTLSKADYEKHKVYACEVTHQGLSSPVTKSFNRGEC | 0.0237 | 61.9 | 0.0511 | 16.8 | 1.01 | – | –
L234S (antibody, human IgG1, kappa, HuAM4G7 anti-CD19 IgG1 (m1) with this Fc substitution, EU index; copies: 2 + 2) heavy: not shown light: DIVMTQSPATLSLSPGERATLSCRSSKSLQNVNGNTYLYWFQQKPGQSPQLLIYRMSNLNSGVPDRFSGSGSGTEFTLTISSLEPEDFAVYYCMQHLEYPITFGAGTKLEIKRTVAAPSVFIFPPSDEQLKSGTASVVCLLNNFYPREAKVQWKVDNALQSGNSQESVTEQDSKDSTYSLSSTLTLSKADYEKHKVYACEVTHQGLSSPVTKSFNRGEC | 0.192 | 7.64 | 0.693 | 1.24 | – | – | –
L235Q (antibody, human IgG1, kappa, HuAM4G7 anti-CD19 IgG1 (m1) with this Fc substitution, EU index; copies: 2 + 2) heavy: not shown light: DIVMTQSPATLSLSPGERATLSCRSSKSLQNVNGNTYLYWFQQKPGQSPQLLIYRMSNLNSGVPDRFSGSGSGTEFTLTISSLEPEDFAVYYCMQHLEYPITFGAGTKLEIKRTVAAPSVFIFPPSDEQLKSGTASVVCLLNNFYPREAKVQWKVDNALQSGNSQESVTEQDSKDSTYSLSSTLTLSKADYEKHKVYACEVTHQGLSSPVTKSFNRGEC | – | – | 2.04 | 0.42 | – | no binding | –
L235T/S267E (antibody, human IgG1, kappa, HuAM4G7 anti-CD19 IgG1 (m1) with these Fc substitutions, EU index; copies: 2 + 2) heavy: not shown light: DIVMTQSPATLSLSPGERATLSCRSSKSLQNVNGNTYLYWFQQKPGQSPQLLIYRMSNLNSGVPDRFSGSGSGTEFTLTISSLEPEDFAVYYCMQHLEYPITFGAGTKLEIKRTVAAPSVFIFPPSDEQLKSGTASVVCLLNNFYPREAKVQWKVDNALQSGNSQESVTEQDSKDSTYSLSSTLTLSKADYEKHKVYACEVTHQGLSSPVTKSFNRGEC | 2.37 | 0.619 | 3.06 | 0.281 | – | – | –
L234F/G236N (antibody, human IgG1, kappa, HuAM4G7 anti-CD19 IgG1 (m1) with these Fc substitutions, EU index; copies: 2 + 2) heavy: not shown light: DIVMTQSPATLSLSPGERATLSCRSSKSLQNVNGNTYLYWFQQKPGQSPQLLIYRMSNLNSGVPDRFSGSGSGTEFTLTISSLEPEDFAVYYCMQHLEYPITFGAGTKLEIKRTVAAPSVFIFPPSDEQLKSGTASVVCLLNNFYPREAKVQWKVDNALQSGNSQESVTEQDSKDSTYSLSSTLTLSKADYEKHKVYACEVTHQGLSSPVTKSFNRGEC | – | – | – | – | – | no binding | no binding
L235P (antibody, human IgG1, kappa, HuAM4G7 anti-CD19 IgG1 (m1) with this Fc substitution, EU index; copies: 2 + 2) heavy: not shown light: DIVMTQSPATLSLSPGERATLSCRSSKSLQNVNGNTYLYWFQQKPGQSPQLLIYRMSNLNSGVPDRFSGSGSGTEFTLTISSLEPEDFAVYYCMQHLEYPITFGAGTKLEIKRTVAAPSVFIFPPSDEQLKSGTASVVCLLNNFYPREAKVQWKVDNALQSGNSQESVTEQDSKDSTYSLSSTLTLSKADYEKHKVYACEVTHQGLSSPVTKSFNRGEC | 0.00585 | 251 | 0.122 | 7.01 | – | – | –
L234P (antibody, human IgG1, kappa, HuAM4G7 anti-CD19 IgG1 (m1) with this Fc substitution, EU index; copies: 2 + 2) heavy: not shown light: DIVMTQSPATLSLSPGERATLSCRSSKSLQNVNGNTYLYWFQQKPGQSPQLLIYRMSNLNSGVPDRFSGSGSGTEFTLTISSLEPEDFAVYYCMQHLEYPITFGAGTKLEIKRTVAAPSVFIFPPSDEQLKSGTASVVCLLNNFYPREAKVQWKVDNALQSGNSQESVTEQDSKDSTYSLSSTLTLSKADYEKHKVYACEVTHQGLSSPVTKSFNRGEC | 0.0644 | 22.8 | 0.0141 | 60.7 | – | – | –
L234V (antibody, human IgG1, kappa, HuAM4G7 anti-CD19 IgG1 (m1) with this Fc substitution, EU index; copies: 2 + 2) heavy: not shown light: DIVMTQSPATLSLSPGERATLSCRSSKSLQNVNGNTYLYWFQQKPGQSPQLLIYRMSNLNSGVPDRFSGSGSGTEFTLTISSLEPEDFAVYYCMQHLEYPITFGAGTKLEIKRTVAAPSVFIFPPSDEQLKSGTASVVCLLNNFYPREAKVQWKVDNALQSGNSQESVTEQDSKDSTYSLSSTLTLSKADYEKHKVYACEVTHQGLSSPVTKSFNRGEC | 0.456 | 3.22 | 0.134 | 6.42 | – | – | –
G237Q (antibody, human IgG1, kappa, HuAM4G7 anti-CD19 IgG1 (m1) with this Fc substitution, EU index; copies: 2 + 2) heavy: not shown light: DIVMTQSPATLSLSPGERATLSCRSSKSLQNVNGNTYLYWFQQKPGQSPQLLIYRMSNLNSGVPDRFSGSGSGTEFTLTISSLEPEDFAVYYCMQHLEYPITFGAGTKLEIKRTVAAPSVFIFPPSDEQLKSGTASVVCLLNNFYPREAKVQWKVDNALQSGNSQESVTEQDSKDSTYSLSSTLTLSKADYEKHKVYACEVTHQGLSSPVTKSFNRGEC | 0.147 | 10 | 0.0859 | 10 | – | – | –
L235H (antibody, human IgG1, kappa, HuAM4G7 anti-CD19 IgG1 (m1) with this Fc substitution, EU index; copies: 2 + 2) heavy: not shown light: DIVMTQSPATLSLSPGERATLSCRSSKSLQNVNGNTYLYWFQQKPGQSPQLLIYRMSNLNSGVPDRFSGSGSGTEFTLTISSLEPEDFAVYYCMQHLEYPITFGAGTKLEIKRTVAAPSVFIFPPSDEQLKSGTASVVCLLNNFYPREAKVQWKVDNALQSGNSQESVTEQDSKDSTYSLSSTLTLSKADYEKHKVYACEVTHQGLSSPVTKSFNRGEC | 0.734 | 2 | 0.756 | 1.14 | 0.832 | – | –
G237Y (antibody, human IgG1, kappa, HuAM4G7 anti-CD19 IgG1 (m1) with this Fc substitution, EU index; copies: 2 + 2) heavy: not shown light: DIVMTQSPATLSLSPGERATLSCRSSKSLQNVNGNTYLYWFQQKPGQSPQLLIYRMSNLNSGVPDRFSGSGSGTEFTLTISSLEPEDFAVYYCMQHLEYPITFGAGTKLEIKRTVAAPSVFIFPPSDEQLKSGTASVVCLLNNFYPREAKVQWKVDNALQSGNSQESVTEQDSKDSTYSLSSTLTLSKADYEKHKVYACEVTHQGLSSPVTKSFNRGEC | 0.33 | 4.45 | 0.902 | 0.952 | – | – | –
G237V (antibody, human IgG1, kappa, HuAM4G7 anti-CD19 IgG1 (m1) with this Fc substitution, EU index; copies: 2 + 2) heavy: not shown light: DIVMTQSPATLSLSPGERATLSCRSSKSLQNVNGNTYLYWFQQKPGQSPQLLIYRMSNLNSGVPDRFSGSGSGTEFTLTISSLEPEDFAVYYCMQHLEYPITFGAGTKLEIKRTVAAPSVFIFPPSDEQLKSGTASVVCLLNNFYPREAKVQWKVDNALQSGNSQESVTEQDSKDSTYSLSSTLTLSKADYEKHKVYACEVTHQGLSSPVTKSFNRGEC | 0.147 | 10 | 0.0342 | 25.1 | – | – | –
